Among the data in the supplement of paper PMC12042874 are amyloid nucleation score values, retold here.

A short description of this data set: amyloid nucleation score (Sup35N fusion, yeast selection) (log enrichment); library NNK3; higher = more nucleation; inactive = no reads after selection. An outline of the steps: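 Growth for 7 days at 30°C on medium lacking adenine and uracil followed a 24-hour induction with 100 μM copper sulfate of psi-negative yeast expressing peptides of 20 random codons fused to Sup35N. Input and output plasmid inserts were sequenced with Illumina, and sequences with under 100 input reads were excluded. Nucleation score is the DiMSum log enrichment of output over input reads, centred on the mode score of non-aggregating sequences.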

± gives the uncertainty stated by the source.

Take SVSLLAFRDFALPDHTKHMT: the amyloid nucleation score entry is “inactive”.

Consider SCSFRVYYFRLYFMLRSGSV, for which the amyloid nucleation score is -0.743 ± 0.82.

In turn, ITFVRGWVFDLQFNATE came in with an amyloid nucleation score of 0.55 ± 0.37.

In turn, FTLNVIF yielded an amyloid nucleation score of 1.9 ± 0.069.

Regarding VYRQVLRET, the amyloid nucleation score entry is “inactive”.

With KSCLCSSTKRKLNRLTYTDR, the amyloid nucleation score result is “inactive”.

The substance EGGLDFVFLYYGIICWVVAA yielded an amyloid nucleation score of 0.282 ± 0.74.

As for LIVSIYMCGCRKRITFLRVS, the amyloid nucleation score result is “inactive”.

Turning to GYVPHVFFRILRLVRENMLE, the amyloid nucleation score entry was “inactive”.

For the substance IFVVP, the amyloid nucleation score entry was “inactive”.

As for YSYHS, the amyloid nucleation score entry was “inactive”.

Take VLIDYYMMSTSN: the amyloid nucleation score entry was “inactive”.

For TKCNRALHMEVIIQATAVAR, the amyloid nucleation score result is “inactive”.

As to VWMVCSPSGIRLANSFVVDI, the amyloid nucleation score result is “inactive”.

Substance YVILPLEAPFS gave an amyloid nucleation score of 1.49 ± 0.095.

As for FIDMLSYIAYIVLFFGASFV, the amyloid nucleation score entry was “inactive”.

For the substance EVQEKAEHHVLVGRVANPRF, the amyloid nucleation score entry was “inactive”.

In the case of TDRRKK, the amyloid nucleation score result was “inactive”.

Take NPVGT: the amyloid nucleation score entry is “inactive”.

Turning to FAGESN, the amyloid nucleation score result is “inactive”.

As to FCLCAFSALQRVYI, the amyloid nucleation score entry is “inactive”.

For SVYNSYWKVQYRVVMS, the amyloid nucleation score was found to be 0.506 ± 0.21.

On to PGLCGNGHNDHKTVNIEVYH, for which the amyloid nucleation score result is “inactive”.

For the substance HPSSNLMHLM, the amyloid nucleation score entry is “inactive”.

Take LLVMGFCRVLCDLGGRYVRV: the amyloid nucleation score result is “inactive”.

Consider QRKFVVAVVSATILLFNTRE, for which the amyloid nucleation score result is “inactive”.

Take KNMHNPDRY: the amyloid nucleation score result is “inactive”.

Consider LYRWHNLFGYTNVSSIQKYG, for which the amyloid nucleation score entry is “inactive”.

For KPTIDIKCFCSWVYLKVLRG, the amyloid nucleation score result was “inactive”.

On to PIPHML, for which the amyloid nucleation score is -0.592 ± 0.75.

For KGPRSGLVYGSSDHVFLA, the amyloid nucleation score result is “inactive”.

As to RYFVRYVRSVLTSG, the amyloid nucleation score result is “inactive”.

In the case of YIPGGFRNFGMV, the amyloid nucleation score result is “inactive”.

Turning to NCMELLWCCSCSSVICVMHH, the amyloid nucleation score was 2.96 ± 0.07.

As for VRMMFSWPK, the amyloid nucleation score was found to be 0.902 ± 0.24.

Regarding FECGRFMGLVVLAVRSGNVM, the amyloid nucleation score entry was “inactive”.

Take KGLVYSELNYYLLSWY: the amyloid nucleation score result is “inactive”.

As to GICIGTDKTFYCLGMSFF, the amyloid nucleation score entry is “inactive”.

As to PFTLSSMVSVLPMGFRIGDK, the amyloid nucleation score entry is “inactive”.

In the case of EVGDPMYRTIGVKFGPLAME, the amyloid nucleation score result was “inactive”.

Regarding WTRESLQYTGNSYGALSTFF, the amyloid nucleation score result is “inactive”.

Consider CSISSKIFLLLMNWLCWSCG, for which the amyloid nucleation score result was “inactive”.

With SSTSCTHGYVGMFGFPSVVS, the amyloid nucleation score entry is “inactive”.

In turn, YLLVFCSNF came in with an amyloid nucleation score of 2.29 ± 0.091.

For VLYCGHCFVFTRCSGWVQLG, the amyloid nucleation score entry is “inactive”.

With GVPLQWSSHAWGFFCWKTPW, the amyloid nucleation score result is “inactive”.

In the case of IASEFVRGKHSHYM, the amyloid nucleation score result is “inactive”.

As to GLRTFIG, the amyloid nucleation score entry was “inactive”.

With VEMATKLQVKVIERALNEGD, the amyloid nucleation score entry was “inactive”.

For RLYILAGGDFCNSCVVAYCR, the amyloid nucleation score worked out at 0.147 ± 0.36.

As to RCTHYMNRQMVLHVCMYVSY, the amyloid nucleation score result was “inactive”.

As to LPLADLKGMASASFKDGKVF, the amyloid nucleation score entry is “inactive”.

As for QICTQFRSG, the amyloid nucleation score result was “inactive”.

IYVRLMSFH yielded an amyloid nucleation score of 0.452 ± 0.15.

In turn, WTGLLLCVF displayed an amyloid nucleation score of -0.093 ± 0.85.

Turning to NLSNLLNLVRLVRGRLGNAA, the amyloid nucleation score result was “inactive”.

Substance MRFLWCNVCL gave an amyloid nucleation score of 2.07 ± 0.078.

In the case of GIVNYRPAYP, the amyloid nucleation score result is “inactive”.

Substance SINDLGLWNVTVKFLCK gave an amyloid nucleation score of -0.037 ± 0.63.

As to VPCMRNFDLYLKSVTDRLDK, the amyloid nucleation score result was “inactive”.

YLSNLYSPKRNWAAVL: the amyloid nucleation score result is “inactive”.

With EALGKSFLVKFKTIKYLRLA, the amyloid nucleation score entry is “inactive”.

Regarding SRYFYDADYLFGGHSVAGQI, the amyloid nucleation score result was “inactive”.

Consider LVLDINTFTDIGSRKRWSHG, for which the amyloid nucleation score entry was “inactive”.

Turning to YRYVCWFTTILTYTNGRFSS, the amyloid nucleation score entry is “inactive”.

As for YSSANNCNWC, the amyloid nucleation score is 1.7 ± 0.077.

For the substance VLPRRTLACIKRTNKASETV, the amyloid nucleation score entry was “inactive”.

Turning to ADFKKVSSLLRSTGLVGGFR, the amyloid nucleation score result is “inactive”.

As to CLRVICCFWKRPGFDWYLEM, the amyloid nucleation score entry is “inactive”.

RWCDA: the amyloid nucleation score is -0.041 ± 0.31.

Take FMVCCICGKYGMMVSC: the amyloid nucleation score result was “inactive”.

As to LFVNNVVFHFIFLCPVHRTV, the amyloid nucleation score came to 2.75 ± 0.06.

In turn, ISTIRYNISYANAYYSSRQG gave an amyloid nucleation score of 0.699 ± 0.21.

Take NGLRRSVLGLRL: the amyloid nucleation score entry is “inactive”.

In the case of ASGFLYSSSHLERNKLVNKF, the amyloid nucleation score entry was “inactive”.

Turning to FVIGRI, the amyloid nucleation score entry is “inactive”.

Turning to EQIPMKSVEGEYWLTVIVGN, the amyloid nucleation score entry is “inactive”.

With RCLRKSSIFA, the amyloid nucleation score result is “inactive”.

As for CYFTASCLWMNANIDVSLSK, the amyloid nucleation score entry was “inactive”.

For the substance YRYYFRSEVPEDKEDDGYLL, the amyloid nucleation score entry is “inactive”.

Regarding IFVFLHLHLIWFYSSSWLMD, the amyloid nucleation score result was “inactive”.

As for NLPLYPSGFFKSMIRNRVLT, the amyloid nucleation score was 1.66 ± 0.083.

WCCFSWKVLRHGLTSACGC registered an amyloid nucleation score of 1.31 ± 0.11.

In the case of AVEEHLIHLSCCVQAVNRRV, the amyloid nucleation score was 2.36 ± 0.074.

As for HSMQCNT, the amyloid nucleation score result is “inactive”.

Regarding MVKCQWGFRL, the amyloid nucleation score worked out at 1.33 ± 0.12.

For the substance KWVFWSIYVPFTCKFNMVNR, the amyloid nucleation score entry is “inactive”.

On to NRFVNLSNRMVYDFRYRMAV, for which the amyloid nucleation score entry is “inactive”.

Substance PVEWP returned an amyloid nucleation score of -0.114 ± 0.78.

With LYVSCWFDLRPSTFYLGSEF, the amyloid nucleation score stood at 2.48 ± 0.054.

Substance QILFTQILLNSGEEGLSFVS registered an amyloid nucleation score of 0.479 ± 0.18.

With QLNGCHWCTMLSVVFCSRGV, the amyloid nucleation score is 2.72 ± 0.069.

In the case of FTLLIYCYYLYYRCFCYVVR, the amyloid nucleation score result is “inactive”.

Consider HRGIVGCLAYMHMNRIVATT, for which the amyloid nucleation score entry is “inactive”.

Turning to KLAVFYFVVLVFRGERISSC, the amyloid nucleation score result was “inactive”.

Take KIVFSKSLGFLVFVMRYNQW: the amyloid nucleation score entry is “inactive”.

For CVRNENRSGS, the amyloid nucleation score was -0.974 ± 2.5.

Regarding EKRYRPEKTF, the amyloid nucleation score entry is “inactive”.

Consider ESAYFLAYLQVLLWRVMGEL, for which the amyloid nucleation score entry is “inactive”.

In the case of FFCRKAHLMVVFFSSMRMTG, the amyloid nucleation score entry was “inactive”.

For HEELQKIMIFSCMCYLQVLT, the amyloid nucleation score result is “inactive”.

Consider YSSKIFHRLTK, for which the amyloid nucleation score result was “inactive”.

SVFSFCLNYSYNCIDRCKFN: the amyloid nucleation score entry is “inactive”.

For the substance RENTNSFGVNCGTQFGRISL, the amyloid nucleation score was 1.56 ± 0.099.

Consider YLLFIWSAYENKVGIGYITE, for which the amyloid nucleation score entry is “inactive”.

With YRLRNCFRHMPAAQTFTP, the amyloid nucleation score result is “inactive”.

Regarding RHDVSSGSYGGRSGAGSPAQ, the amyloid nucleation score result was “inactive”.

On to LKWAV, for which the amyloid nucleation score result is “inactive”.

Consider SNTFRTIGS, for which the amyloid nucleation score result was “inactive”.

Consider CFVKGFTIETFWLKVVGIRG, for which the amyloid nucleation score entry is “inactive”.

SVNSVTWLFVRMQYFLFISC: the amyloid nucleation score entry is “inactive”.

Take SDYLFSQRGFVGSASCVLVM: the amyloid nucleation score entry is “inactive”.

For VTGLEVRHQRHIWHNMGMIR, the amyloid nucleation score entry was “inactive”.

With GNISIWGFRNSWALDLIAGY, the amyloid nucleation score result is “inactive”.

On to GHKVVL, for which the amyloid nucleation score entry was “inactive”.

In the case of ILFRGPKLCKNGHVL, the amyloid nucleation score entry was “inactive”.

Consider NMDSAWKCPHPYKSLTIVCF, for which the amyloid nucleation score result was “inactive”.

As for NADTYNRSDEKMTGRYWDRR, the amyloid nucleation score result is “inactive”.

CNIISQTRGHEISQCGSWMW: the amyloid nucleation score result was “inactive”.

In turn, SYCVRWNRIVDFVGSCRDHG had an amyloid nucleation score of 1.11 ± 0.11.

LSDMNVNKRMCCMVRDSNMR: the amyloid nucleation score result was “inactive”.

MVFSAICITHFTKI: the amyloid nucleation score result is “inactive”.

GTSAH: the amyloid nucleation score entry was “inactive”.

Take RQADMYRYLFWGRWTVWCSW: the amyloid nucleation score result is “inactive”.

With QSNTLYIKFAAWSYFFSDPE, the amyloid nucleation score entry was “inactive”.

NYTSCNFNVYNSMFFRRYTM had an amyloid nucleation score of 3.2 ± 0.053.

Regarding MSVYRYSKAVYARIEFTSRS, the amyloid nucleation score entry was “inactive”.

As for CNDFNSYVRCYIMSNNFFRY, the amyloid nucleation score entry is “inactive”.

Substance LIKSSRLCLPKYTGVCNSHK displayed an amyloid nucleation score of -0.189 ± 0.88.

As to FLVDVYSCVCSILLWV, the amyloid nucleation score result is “inactive”.

Substance ESSISTLFIFNMVGPQ yielded an amyloid nucleation score of 2.21 ± 0.068.

Consider YYGRNEVLYQSDNVRYSSSG, for which the amyloid nucleation score result was “inactive”.
